Test results as given in patent US20120114652A1 (AbbVie / Abbott, published 2012).
Where a chain is given by its changes, count along the chain named.

T1: rabbit PAI-1 (rabbit)
T1 chain: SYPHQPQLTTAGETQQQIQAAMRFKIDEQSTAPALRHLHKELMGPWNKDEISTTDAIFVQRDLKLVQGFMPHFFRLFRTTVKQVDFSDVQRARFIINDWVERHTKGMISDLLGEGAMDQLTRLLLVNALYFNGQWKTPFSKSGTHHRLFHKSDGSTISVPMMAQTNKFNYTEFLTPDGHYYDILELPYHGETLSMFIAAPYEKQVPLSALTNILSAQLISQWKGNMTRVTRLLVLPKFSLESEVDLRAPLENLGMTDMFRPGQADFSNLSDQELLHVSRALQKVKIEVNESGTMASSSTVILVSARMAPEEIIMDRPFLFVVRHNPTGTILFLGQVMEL

B1: Antibody 16, scFv (scFv, V domains shown)
VH: QVQLVQSGAEVKKPGSSVKVSCKASGGTFSSYAISWVRQAPGQGLEWMGGIIPTFGTANYAQKFQGRVTITADESTSTAYMELSSLRSEDTAVYYCAREKRQWLEGHFDYWGRGTLVTVSS
VL: DIQMTQSPSTLSASVGDRVTITCRASESIYHSLAWYQQKPGKAPKLLIYKASSLASGVPSRFSGSRSGTEFTLTISSLQPDDFATYYCQQYSNYPLTFGGGTKVEIK
B2: Antibody 18, scFv (scFv, V domains shown)
VH: B1 VH with V5Q, F64L, S85G, L116P
VL: B1 VL with T10F, V15I, S28G, S32A, K50R, V58A, R66G, E70D, V104L
B3: Antibody 01, IgG1, not germlined (antibody, V domains shown)
VH: B1 VH with T54I
VL: B1 VL with S28G, H31R, R66G
B4: Antibody 02, IgG1, not germlined (antibody, V domains shown)
VH: B1 VH
VL: B1 VL with S28G, R66G, N93D
B5: Antibody 15, scFv (scFv, V domains shown)
VH: B1 VH with V5Q, S85G, L116P
VL: DIQMAQSPSFLSASIGDRVTITCRASEGIYHNLAWYQQKPGKAPKLLIYRASSLASGAPSRFSGSGSGTDFTLTISSLQPDDFATYYCQQYSNYPLTFGGGTKLEIR
B6: Antibody 01, scFv (scFv, V domains shown)
VH: B1 VH with T54I
VL: B1 VL with S28G, H31R, R66G
B7: Antibody 09, scFv (scFv, V domains shown)
VH: B1 VH with V5Q, T54A, G56D, S85G, L116P
VL: B5 VL with A5T, R24Q, R107K
B8: Antibody 14, scFv (scFv, V domains shown)
VH: B1 VH with V5Q, S85G
VL: B5 VL with A5T, L73F, R107K
B9: Antibody 20, scFv (scFv, V domains shown)
VH: B1 VH with V5Q
VL: B1 VL with S28G, S32E, K50R, N93D
B10: Antibody 27, scFv (scFv, V domains shown)
VH: B1 VH with V5Q, T28A, S85G, L116P
VL: B5 VL with A5T, R107K
B11: Antibody 03, IgG4, not germlined (antibody, V domains shown)
VH: B1 VH with V5Q, S85G, L116P
VL: B5 VL with A5T, H31R, N32S, R50K, S77G, R107K
B12: Antibody 02, IgG4, not germlined (antibody, V domains shown)
VH: B1 VH
VL: B1 VL with S28G, R66G, N93D
notes: whole IgG4; also called Ab 02
B13: Antibody 01, IgG4, not germlined (antibody, V domains shown)
VH: B1 VH with T54I
VL: B1 VL with S28G, H31R, R66G
notes: whole IgG4; also called Ab 01
B14: rat PAI-1 (other)
chain: SPLPESHTAQQATNFGVKVFQHVVQASKDRNVVFSPYGVSSVLAMLQLTTAGKTRQQIQDAMGFNISERGTAPALRKLSKELMGSWNKNEISTADAIFVQRDLELVQGFMPHFFKLFRTTVKQVDFSEVERARFIINDWVERHTKGMISDLLAKGAVNELTRLVLVNALYFNGQWKTPFLEASTHQRLFHKSDGSTISVPMMAQNNKFNYTEFTTPDGHEYDILELPYHGETLSMFIAAPFEKDVPLSAITNILDAELIRQWKSNMTRLPRLLILPKFSLETEVDLRGPLEKLGMTDIFSSTQADFTSLSDQEQLSVAQALQKVKIEVNESGTVASSSTAILVSARMAPTEMVLDRSFLFVVRHNPTETILFMGQLMEP
notes: bought (US Biological)
B15: mouse PAI-1 (other)
chain: ALPLRESHTAHQATDFGVKVFQQVVQASKDRNVVFSPYGVSSVLAMLQMTTAGKTRRQIQDAMGFKVNEKGTAHALRQLSKELMGPWNKNEISTADAIFVQRDLELVQGFMPHFFKLFQTMVKQVDFSEVERARFIINDWVERHTKGMINDLLAKGAVDELTRLVLVNALYFSGQWKTPFLEASTHQRLFHKSDGSTVSVPMMAQSNKFNYTEFTTPDGLEYDVVELPYQGDTLSMFIAAPFEKDVHLSALTNILDAELIRQWKGNMTRLPRLLILPKFSLETEVDLRGPLEKLGMPDMFSATLADFTSLSDQEQLSVAQALQKVRIEVNESGTVASSSTAFVISARMAPTEMVIDRSFLFVVRHNPTETILFMGQVMES
notes: bought (US Biological); also called murine PAI-1

These binders were tested against T2, human PAI-1, active, wild-type, non-glycosylated (E. coli-derived) (human, UniProt P05121 24-402) (assay: cell-based or functional assay).

With B1 the “IC50 chromogenic (FIG. 2a)” value was 3.6 nM.

Each binder was assayed against T3, cynomolgus PAI-1 (cynomolgus, UniProt P05121 24-402 (human entry), limits assumed) (assay: cell-based or functional assay).

B1 was tested, and the “IC50 chromogenic (FIG. 2b)” value was 0.8 nM.

Each binder was assayed against B14 (assay: cell-based or functional assay).

With B2 the “fold higher IC50 in the rat chromogenic assay, against the human assay” value was ~180 fold.

Molecular target: T2, human PAI-1, active, wild-type, …
Test: cell-based or functional assay
Remark: another data set of the same source

B3 and B4 are within 1.5-fold of each other in IC50 chromogenic: 1.5 nM for the first, 1.6 nM for the second.

Going from B5 to B2, the IC50 chromogenic falls from 7.2 nM to 1.3 nM (5.5-fold).

Binder B6 has an IC50 chromogenic of 3.4 nM.

Molecular target: T3, cynomolgus PAI-1
Test: cell-based or functional assay
Remark: another data set of the same source

B3 and B7 are the same in IC50 chromogenic: 0.7 nM for the first, 0.7 nM for the second.

First: B8
Second: B5
The IC50 chromogenic of the first is 2.8-fold lower: 0.8 nM for the first, 2.2 nM for the second.

Compared with B9, B10 is 1.7-fold higher in IC50 chromogenic: 1.3 nM for the first, 2.2 nM for the second.

Going from B2 to B6, the IC50 chromogenic rises from 0.5 nM to 1.2 nM (2.4-fold).

With B11 the IC50 chromogenic was 0.5 nM.

Going from B3 to B5, the IC50 ratio cyno/human falls from 0.4 to 0.3.

B2 and B6 are the same in IC50 ratio cyno/human: 0.4 for the first, 0.4 for the second.

Molecular target: B14
Test: cell-based or functional assay
Remark: another data set of the same source

Compared with B3, B7 is 3.3-fold lower in IC50 chromogenic: 99.3 nM for the first, 29.7 nM for the second.

First: B4
Second: B8
The IC50 chromogenic of the first is 22-fold higher: 510 nM for the first, 23.1 nM for the second.

B5 and B10 are within 1.5-fold of each other in IC50 chromogenic: 64.2 nM for the first, 49.8 nM for the second.

First: B1
Second: B2
The IC50 chromogenic of the first is 42-fold lower: 5.6 nM for the first, 238 nM for the second.

B6 gave an IC50 chromogenic of 208 nM.

Going from B3 to B4, the IC50 ratio rat/human rises from 66.2 to 317.

Compared with B5, B2 is higher in IC50 ratio rat/human: 8.9 for the first, 190 for the second.

With B6 the IC50 ratio rat/human was 60.5.

Each binder was assayed against B15 (assay: cell-based or functional assay).

Compared with B3, B4 is 5.6-fold higher in IC50 chromogenic: 30 nM for the first, 167 nM for the second.

Compared with B5, B9 is 14-fold lower in IC50 chromogenic: 66.9 nM for the first, 4.9 nM for the second.

Going from B1 to B2, the IC50 chromogenic rises from 4.3 nM to 319 nM (74-fold).

Going from B6 to B11, the IC50 chromogenic falls from 28.3 nM to 12.9 nM (2.2-fold).

Going from B3 to B4, the IC50 ratio mouse/human rises from 20 to 104.

Going from B5 to B2, the IC50 ratio mouse/human rises from 9.3 to 255.

Binder B6 has an IC50 ratio mouse/human of 8.2.

The binders below were run against glycosylated active human PAI-1 produced by CHO cells (human, UniProt P05121 24-402, N-glycosylated (CHO-produced)) (assay: cell-based or functional assay).

B3 and B4 are within 1.5-fold of each other in “IC50 chromogenic, hu glyco” value: 1.7 nM for the first, 1.5 nM for the second.

Molecular target: T2, human PAI-1, active, wild-type, …
Test: cell-based or functional assay
Remark: another data set of the same source

Going from B3 to B7, the “IC50 HT-1080 Exo PAI-1” value rises from 11.2 nM to 23 nM (2.1-fold).

Compared with B4, B8 is 3.2-fold higher in “IC50 HT-1080 Exo PAI-1” value: 8.7 nM for the first, 28 nM for the second.

First: B5
Second: B9
The “IC50 HT-1080 Exo PAI-1” value of the first is 1.9-fold higher: 36 nM for the first, 19.1 nM for the second.

B10 and B1 are within 1.5-fold of each other in “IC50 HT-1080 Exo PAI-1” value: 18.8 nM for the first, 16.9 nM for the second.

Going from B6 to B11, the “IC50 HT-1080 Exo PAI-1” value falls from 23.9 nM to 9.5 nM (2.5-fold).

Molecular target: B14
Test: cell-based or functional assay
Remark: another data set of the same source

B7 and B8 are within 1.5-fold of each other in “IC50 HT-1080 Exo PAI-1” value: 52.7 nM for the first, 52 nM for the second.

B5 and B9 are within 1.5-fold of each other in “IC50 HT-1080 Exo PAI-1” value: 57 nM for the first, 42.4 nM for the second.

First: B10
Second: B1
The “IC50 HT-1080 Exo PAI-1” value of the first is 1.6-fold lower: 33.8 nM for the first, 52.6 nM for the second.

With B2 the “IC50 HT-1080 Exo PAI-1” value was 37 nM.

Molecular target: B15
Test: cell-based or functional assay
Remark: another data set of the same source

B3 and B7 are within 1.5-fold of each other in “IC50 HT-1080 Exo PAI-1” value: 15.8 nM for the first, 21 nM for the second.

First: B4
Second: B8
The “IC50 HT-1080 Exo PAI-1” value of the first is 2-fold lower: 10.9 nM for the first, 22 nM for the second.

Going from B5 to B9, the “IC50 HT-1080 Exo PAI-1” value falls from 37 nM to 18.1 nM (2-fold).

B10 and B1 are within 1.5-fold of each other in “IC50 HT-1080 Exo PAI-1” value: 16.4 nM for the first, 17.6 nM for the second.

For B6, the “IC50 HT-1080 Exo PAI-1” value was 34.5 nM.

Molecular target: T1, rabbit PAI-1
Test: competition ELISA (DELFIA), IgG coated, competitor titrated against biotinylated active human PAI-1

Going from B12 to B13, the IC50 ratio rabbit/wt rises from 4.8 to 9.

What follows are binders tested against PICK167_A01 IgG1 (assay: competition ELISA (DELFIA): PICK167_A01 IgG1 coated on the plate, binding of biotinylated human PAI-1 detected with streptavidin-Eu3+ in the presence of a titration of the unlabelled test antigen (the varied molecule)).

Going from B14 to B15, the “IC50 (read off the curve)” value rises from ~2 nM to ~4 nM (2-fold).

The binders below were run against T4, PICK167_A01-fgl IgG1 (CAT-1001) (assay: competition ELISA (DELFIA): PICK167_A01-fgl IgG1 (CAT-1001) coated on the plate, binding of biotinylated human PAI-1 detected with streptavidin-Eu3+ in the presence of a titration of the unlabelled test antigen (the varied molecule)).
T4 construct: fully germlined variant, made as an IgG1 only; also called PICK67A01-fgl

Going from B14 to B15, the “IC50 (read off the curve)” value rises from ~1 nM to ~2 nM (2-fold).
